The results in this text go back to US20260274985A1 (MYTHIC THERAPEUTICS, published 2026).

Residue numbers refer to the chain shown, from its start.

The target in test [1] is T1, Human TROP2 Protein, His Tag (Acro Biosystems) (human, UniProt P09758 27-274).
T1 construct: Bought protein; also called TACSTD2; not shown: His tag
T1 sequence: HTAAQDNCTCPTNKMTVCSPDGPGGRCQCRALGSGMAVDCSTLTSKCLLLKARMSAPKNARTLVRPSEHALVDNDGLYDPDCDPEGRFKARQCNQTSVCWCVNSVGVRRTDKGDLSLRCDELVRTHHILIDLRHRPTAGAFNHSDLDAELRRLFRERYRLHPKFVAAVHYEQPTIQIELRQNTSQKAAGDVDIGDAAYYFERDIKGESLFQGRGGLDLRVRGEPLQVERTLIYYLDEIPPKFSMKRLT
The test can be described thus: BLI (Octet). In general terms: Biolayer interferometry detects binding as a change in optical thickness at a sensor tip.

The target of test [2] is T1, Human TROP2 Protein, His Tag (Acro …). The test is described as follows: BLI (Octet), antibody on anti-human Fc sensor, human TROP2-His in solution; legend: 3=No binding.
Test [3] has as its target T2, Human TROP2 Protein, His Tag (human, UniProt P09758 27-274).
T2 construct: Bought protein; also called TACSTD2; not shown: His tag
T2 sequence (looked up): T1 sequence
The test can be described thus: BLI (Octet).

Test [4] has as its target T3, Human TROP2 Protein, His Tag (Acro Biosystems) (human, UniProt P09758 27-274).
T3 construct: not shown: His tag
T3 sequence (looked up): T1 sequence
The test is described as follows: BLI (Octet) [2/2].

Test [5] concerns the target T4, Human TROP2 Protein, His Tag (Acro Biosystems) (human, UniProt P09758 27-274).
T4 construct: not shown: His tag
T4 sequence (looked up): T1 sequence
The test is described as follows: Octet (BLI); antigen and pH not given.

In test [6] the target is T5, TROP2 on TROP2-positive NCI-H1975 cells (human, UniProt P09758 27-323).
T5 construct: whole, on cells
T5 sequence (looked up): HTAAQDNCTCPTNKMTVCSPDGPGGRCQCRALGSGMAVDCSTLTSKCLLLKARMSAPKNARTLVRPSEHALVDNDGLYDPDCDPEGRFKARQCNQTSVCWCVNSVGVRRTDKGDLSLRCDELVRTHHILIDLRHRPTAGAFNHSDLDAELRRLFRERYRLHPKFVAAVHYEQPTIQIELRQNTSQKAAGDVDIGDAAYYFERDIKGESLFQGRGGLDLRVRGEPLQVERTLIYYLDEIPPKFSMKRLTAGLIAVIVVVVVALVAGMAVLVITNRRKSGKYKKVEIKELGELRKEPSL
The test can be described thus: binding to TROP2-positive NCI-H1975 cells at pH 7.4.

Test [7] addresses T5, TROP2 on TROP2-positive NCI-H1975 cells. The test can be described thus: binding to TROP2-positive NCI-H1975 cells at pH 5.4.
Test [8] shares this target. The test is described as follows: binding to TROP2-positive NCI-H1975 cells at pH 6.7.

B1: MYT12412 (hu7E6SVG variant, HCV substitutions at 33, 103) (antibody, V domains shown)
VH: QVQLQESGPGLVKPSETLSLTCTVSGGSISSYHVHWIRQPPGKGLEWIGVIWTSGVTDYNSALMGRVTISVDTSKNQFSLKLSSVTAADTAVYYCARDGDYDHYTMDYWGQGTLVTVSS
VL: DIVMTQSPDSLAVSLGERATINCRASKSVSTSGYSYMHWYQQKPGQPPKLLIYLASNLESGVPDRFSGSGSGTDFTLTISSLQAEDVAVYYCQHSRELPYTFGQGTKLEIK
With B1, the binding result in test [1] is on record as “binds”.

B2: MYT12464 (hu7E6SVG variant, LCV substitutions at 60, 93, 94 (Ala at 94)) (antibody, V domains shown)
VH: B1 VH with H33G, H103R
VL: B1 VL with S60H, Q93H, H94A
notes: Full IgG in Expi293 supernatant
For B2, the binding result in test [2] was “no binding (tested: 50 nM)”.

B3: MYT12457 (hu7E6SVG variant, LCV substitutions at 59, 60, 101) (antibody, V domains shown)
VH: B1 VH with H33G, H103R
VL: B1 VL with E59H, S60H, T101H
notes: as for B2
On to B3, for which the binding result in test [2] is “no binding (tested: 50 nM)”.

B4: MYT12465 (hu7E6SVG variant, LCV substitutions at 60, 93, 97) (antibody, V domains shown)
VH: B1 VH with H33G, H103R
VL: B1 VL with S60H, Q93H, E97H
notes: as for B2
Regarding B4, the binding result in test [2] was “no binding (tested: 50 nM)”.

B5: MYT12460 (hu7E6SVG variant, LCV substitutions at 59, 93, 101) (antibody, V domains shown)
VH: B1 VH with H33G, H103R
VL: B1 VL with E59H, Q93H, T101H
notes: as for B2
B5: in test [2], the binding result is “no binding (tested: 50 nM)”.

B6: MYT12417 (hu7E6SVG variant, HCV substitutions at 34, 103) (antibody, V domains shown)
VH: B1 VH with H33G, V34H
VL: B1 VL
With B6, the binding result in test [1] is “binds”.

B7: MYT12458 (hu7E6SVG variant, LCV substitutions at 59, 93, 94 (Ala at 94)) (antibody, V domains shown)
VH: B1 VH with H33G, H103R
VL: B1 VL with E59H, Q93H, H94A
notes: as for B2
Turning to B7, in test [2], the binding result is recorded as “no binding (tested: 50 nM)”.

B8: MYT12413 (hu7E6SVG variant, HCV substitutions at 33, 106) (antibody, V domains shown)
VH: B1 VH with H103R, M106H
VL: B1 VL
Consider B8, for which, in test [2], the binding result is recorded as “no binding (tested: 50 nM)”.

B9: MYT12421 (hu7E6SVG variant, HCV substitutions at 51, 103) (antibody, V domains shown)
VH: B1 VH with H33G, I51H
VL: B1 VL
For B9, the binding result in test [1] is recorded as “binds”.

B10: MYT12416 (hu7E6SVG variant, HCV substitutions at 34, 102) (antibody, V domains shown)
VH: B1 VH with H33G, V34H, D102H, H103R
VL: B1 VL
As for B10, the binding result in test [1] is “binds”.

B11: MYT12462 (hu7E6SVG variant, LCV substitutions at 59, 94, 101 (Ala at 94)) (antibody, V domains shown)
VH: B1 VH with H33G, H103R
VL: B1 VL with E59H, H94A, T101H
notes: as for B2
B11: the binding result in test [2] is “no binding (tested: 50 nM)”.

B12: MYT12461 (hu7E6SVG variant, LCV substitutions at 59, 94, 97 (Ala at 94)) (antibody, V domains shown)
VH: B1 VH with H33G, H103R
VL: B1 VL with E59H, H94A, E97H
notes: as for B2
Turning to B12, the binding result in test [2] is “no binding (tested: 50 nM)”.

B13: MYT12425 (hu7E6SVG variant, HCV substitutions at 56, 106) (antibody, V domains shown)
VH: B1 VH with H33G, V56H, H103R, M106H
VL: B1 VL
With B13, in test [1], the binding result is “binds”.

B14: MYT12420 (hu7E6SVG variant, HCV substitutions at 51, 102) (antibody, V domains shown)
VH: B1 VH with H33G, I51H, D102H, H103R
VL: B1 VL
On to B14, for which the binding result in test [1] is listed as “binds”.

B15: MYT12456 (hu7E6SVG variant, LCV substitutions at 59, 60, 97) (antibody, V domains shown)
VH: B1 VH with H33G, H103R
VL: B1 VL with E59H, S60H, E97H
notes: as for B2
As to B15, the binding result in test [2] is reported as “no binding (tested: 50 nM)”.

B16: MYT12424 (hu7E6SVG variant, HCV substitutions at 56, 103) (antibody, V domains shown)
VH: B1 VH with H33G, V56H
VL: B1 VL
As for B16, the binding result in test [1] was “binds”.

B17: MYT11643 (antibody, V domains shown)
VH: QVQLVQSGAEVKKPGASVKVSCKASGYTFTTAHMQWVRQAPGQGLEWMGWINTHSGVPKYAEDFKGRVTISADTSTSTAYLQLSSLKSEDTAVYYCARSGFGSSYWYFDVWGQGTLVTVSS
VL: DIQMTQSPSSLSASVGDRVTITCKASQDVSTAVAWYQQKPGKAPKLLIYSASYRYTGVPSRFSGSGSGTDFTLTISSLQPEDFAVYYCQQHYITPLTFGQGTKLEIK
notes: IgG from supernatant; His at HCV position 33; also called datopotamab variant H1 08
As for B17, the binding result in test [3] was “no binding (tested: 50 nM)”.

B18: MYT11665 (antibody, V domains shown)
VH: B17 VH with H33G, S99H
VL: B17 VL
notes: IgG from supernatant; His at HCV position 99; also called datopotamab variant H3 03
In the case of B18, in test [3], the binding result was “no binding (tested: 50 nM)”.

B19: MYT11666 (antibody, V domains shown)
VH: B17 VH with H33G, G100H
VL: B17 VL
notes: IgG from supernatant; His at HCV position 100; also called datopotamab variant H3 04
Take B19: the binding result in test [3] was “no binding (tested: 50 nM)”.

B20: MYT12376 (antibody, V domains shown)
VH: QVQLQQSGSELKKPGASVKVSCKASGYTFTNYGMNWVKQAPGQGLKWMGWINTYTGEPTYTDDFKGRFAFSLDTSVSTAYLQISSLKADDTAVYFCARGGFGSSYWYFDVWGQGSLVTVSS
VL: B17 VL with M4L, T20S, T31I, A51H, S60D, Q89H, I93H, Q100A, L104V
notes: sacituzumab VL 51, 89, 93 -> H
Turning to B20, the binding result in test [4] was “binds”.

B21: MYT12377 (antibody, V domains shown)
VH: B20 VH
VL: B17 VL with M4L, T20S, T31I, Y53H, S60D, Q89H, I93H, Q100A, L104V
notes: sacituzumab VL 53, 89, 93 -> H
In the case of B21, the binding result in test [4] is “binds”.

B22: MYT12364 (antibody, V domains shown)
VH: B20 VH
VL: B17 VL with M4L, T20S, T31I, S60D, Q89H, I93H, Q100A, L104V
notes: sacituzumab VL 89, 93 -> H
Take B22: the binding result in test [4] is “binds”.

B23: MYT12352 (antibody, V domains shown)
VH: B20 VH
VL: B17 VL with M4L, T20S, T31I, A51H, S60D, I93H, Q100A, L104V
notes: sacituzumab VL 51, 93 -> H
Consider B23, for which, in test [4], the binding result is on record as “binds”.

B24: MYT13370 (antibody, human IgG1, V domains shown)
VH: B20 VH with D63H
VL: B17 VL with M4L, T20S, S30H, T31I, V33H, S60D, Q100A, L104V
notes: IgG; also called Sacituzumab HC-LC pairing variant
For the molecule B24, the Kd in test [5] is 1.36 nM. Moreover, the “Octet response at 33.33 nM (Y-Axis) nm” value in test [5] stood at 0.155 nm. In addition, the results for the IC50 in test [6], in test [7] and in test [8] were 0.84 nM, approximately 45 nM and 1.86 nM, respectively.

B25: MYT12351 (antibody, V domains shown)
VH: B20 VH
VL: B17 VL with M4L, T20S, T31I, A51H, S60D, Y92H, Q100A, L104V
notes: sacituzumab VL 51, 92 -> H
For the molecule B25, the binding result in test [4] is “binds”.

B26: MYT12353 (antibody, V domains shown)
VH: B20 VH
VL: B17 VL with M4L, T20S, T31I, S52H, Y53H, S60D, Q100A, L104V
notes: sacituzumab VL 52, 53 -> H
On to B26, for which the binding result in test [4] is on record as “binds”.

B27: MYT12374 (antibody, V domains shown)
VH: B20 VH
VL: B17 VL with M4L, T20S, T31I, A51H, Y53H, S60D, Q89H, Q100A, L104V
notes: sacituzumab VL 51, 53, 89 -> H
In the case of B27, the binding result in test [4] is listed as “binds”.

B28: MYT12357 (antibody, V domains shown)
VH: B20 VH
VL: B17 VL with M4L, T20S, T31I, S52H, S60D, I93H, Q100A, L104V
notes: sacituzumab VL 52, 93 -> H
As for B28, the binding result in test [4] was “binds”.

B29: MYT11663 (antibody, V domains shown)
VH: B17 VH with H33G, A97H
VL: B17 VL
notes: IgG from supernatant; His at HCV position 97; also called datopotamab variant H3 01
As for B29, the binding result in test [3] is “no binding (tested: 50 nM)”.

For orientation: Kd means a measure of binding affinity in units of concentration. Higher therefore signals lower affinity. What is called IC50 is the point on the concentration scale where inhibition reaches its midpoint. A higher IC50 goes with weaker potency in that assay.
